Data reported in patent US20240067734A1 (Hoffmann-La Roche, published 2024).
Where two headings read alike, the source gives them in different places.

What was measured:
[1] = target: T1, CEA expressed on LS180 tumor cells (human, UniProt P06731 35-685); assay: flow cytometry on CEA-positive LS180 cells, anti-human Fc secondary antibody
T1 construct: whole, on cells; also called carcinoembryonic antigen; CEACAM5
T1 sequence (looked up): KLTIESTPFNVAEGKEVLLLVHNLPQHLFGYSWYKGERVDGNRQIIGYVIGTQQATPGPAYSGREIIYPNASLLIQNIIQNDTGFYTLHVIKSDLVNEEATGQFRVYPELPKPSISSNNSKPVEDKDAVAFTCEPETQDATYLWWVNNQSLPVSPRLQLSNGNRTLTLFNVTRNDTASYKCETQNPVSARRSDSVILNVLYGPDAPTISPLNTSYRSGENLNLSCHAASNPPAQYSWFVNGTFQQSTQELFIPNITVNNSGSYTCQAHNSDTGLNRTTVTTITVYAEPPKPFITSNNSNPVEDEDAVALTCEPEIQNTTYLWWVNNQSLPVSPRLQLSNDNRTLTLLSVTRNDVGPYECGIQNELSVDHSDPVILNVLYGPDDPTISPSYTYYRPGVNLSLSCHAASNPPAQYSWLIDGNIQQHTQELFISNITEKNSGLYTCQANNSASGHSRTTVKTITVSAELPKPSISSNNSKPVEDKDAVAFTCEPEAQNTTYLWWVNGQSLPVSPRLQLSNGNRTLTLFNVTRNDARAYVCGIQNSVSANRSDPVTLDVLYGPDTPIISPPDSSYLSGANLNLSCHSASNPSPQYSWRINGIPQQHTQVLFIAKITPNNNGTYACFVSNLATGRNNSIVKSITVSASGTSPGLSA
Description: (§1) Viability of NK92 cells or tumor cells (MKN-45, LS180) was checked and cells were re-suspended and adjusted to a density of 1 mio cells/ml. 100 μl per well of this cell suspension (containing 0.1 mio cells) were seeded into a 96 well round bottom plate. The plate was centrifuged for 4 min at 400×g and the supernatant was removed. Then 40 μl of the diluted antibodies or FACS buffer were added to the cells and incubated for 30 min at 4° C. After the incubation the cells were washed twice with 150 μl FACS buffer per well. […] The cells were incubated for an additional 30 min at 4° C. To remove unbound antibody, the cells were washed again twice with 150 μl per well FACS buffer. To fix the cells, 100 μl of FACS buffer containing 1% PFA were added to the wells. Before measuring, the cells were re-suspended in 150 μl FACS buffer. The fluorescence was measured using a BD flow cytometer.

[2] = target: T1, CEA expressed on LS180 tumor cells; assay: as above; remark: listed apart in the source
Description: as §1

[3] = target: T2, human NKG2D expressed on cells (human, UniProt P26718 1-216); assay: flow cytometry on NK cells (CD3- CD56+) within freshly isolated human PBMCs, anti-human Fc secondary antibody
T2 construct: the cell type is named under assay; also called NKG2D on NK92 cells; HEK293T human NKG2D
T2 chain: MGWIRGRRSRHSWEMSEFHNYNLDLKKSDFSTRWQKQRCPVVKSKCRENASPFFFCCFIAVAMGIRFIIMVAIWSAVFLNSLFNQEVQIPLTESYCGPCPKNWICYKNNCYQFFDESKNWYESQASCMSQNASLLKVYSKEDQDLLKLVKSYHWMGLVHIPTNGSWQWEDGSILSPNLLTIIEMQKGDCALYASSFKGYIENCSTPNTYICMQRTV
Description: (§2) Viability of freshly isolated peripheral blood mononuclear cells (PBMCs) was checked and cells were adjusted to a density of 1 mio cells/ml in FACS buffer. 100 μl per well of the PBMCs (containing 0.1 mio cells) were seeded into a 96 well round bottom plate. The plate was centrifuged for 4 min at 400×g and the supernatant was removed. Then 0.5 μl FC BLOCK™ (BD Bioscience) in 20 μl total volume per well were added and the plate was incubated for 30 min at 4° C. Supernatant was removed and then 40 μl of the diluted anti-NKG2D antibodies were added to the cells and incubated for additional 30 min at 4° C. After the incubation, the cells were washed twice with 150 μl FACS buffer per well. […] The cells were incubated for an additional 30 min at 4° C. To remove unbound antibody, the cells were washed again twice with 150 μl per well FACS buffer. To fix the cells, 100 μl of FACS buffer containing 1% PFA were added to the wells. Before measuring the cells were re-suspended in 150 μl FACS buffer. The fluorescence was measured using a BD flow cytometer.

[4] = target: T2, human NKG2D expressed on cells; assay: flow cytometry on CD8 T cells (CD3+ CD8+) within freshly isolated human PBMCs, anti-human Fc secondary antibody
Description: as §2

[5] = target: T2, human NKG2D expressed on cells; assay: flow cytometry on NKG2D-positive NK92 cells, anti-human Fc secondary antibody
Description: as §1

[6] = target: T2, human NKG2D expressed on cells; assay: flow cytometry on NK92 cells, PE anti-human Fc secondary antibody
[7] = target: T2, human NKG2D expressed on cells; assay: flow cytometry; NK92 cells
his avi huNKG2D ECD = target: T3, his avi huNKG2D ECD (human, biotinylated at the avi-tag (in the ELISA)); assay: SPR Biacore T200; antigen captured via anti-His, bispecific analyte
T3 construct: Human NKG2D ECD with N-terminal H6-avi tags, forms non-covalent dimers; also called recombinant human NKG2D
T3 chain: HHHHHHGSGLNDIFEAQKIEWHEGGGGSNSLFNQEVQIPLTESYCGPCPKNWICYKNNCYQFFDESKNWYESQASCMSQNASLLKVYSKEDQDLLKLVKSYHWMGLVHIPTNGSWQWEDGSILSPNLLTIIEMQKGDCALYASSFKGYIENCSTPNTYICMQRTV
Description: (§3) On a CM5 chip, an anti-penta-His capture antibody (Qiagen Penta-His Antibody, BSA-free; #34660) was immobilized by standard amine coupling on flow cells 2 and 3 at approximately 12′000 RU. […] Regeneration at the level of the anti-H6 tag capture antibody was achieved by 2 pulses of 10 mM glycine/HCl pH 2.0 for 60 s. Data were double-referenced against the unimmobilized flow cell 1 and a zero concentration of the analyte. The sensorgrams of the analytes were fitted to a simple 1:1 Langmuir interaction model.

hu N(A2B2)A-avi-His = target: T4, hu N(A2B2)A-avi-His (human); assay: as above
T4 construct: Construct containing the A2 domain of human CEA, with avi and His tags; also called human CEA (A2 domain)
T4 chain: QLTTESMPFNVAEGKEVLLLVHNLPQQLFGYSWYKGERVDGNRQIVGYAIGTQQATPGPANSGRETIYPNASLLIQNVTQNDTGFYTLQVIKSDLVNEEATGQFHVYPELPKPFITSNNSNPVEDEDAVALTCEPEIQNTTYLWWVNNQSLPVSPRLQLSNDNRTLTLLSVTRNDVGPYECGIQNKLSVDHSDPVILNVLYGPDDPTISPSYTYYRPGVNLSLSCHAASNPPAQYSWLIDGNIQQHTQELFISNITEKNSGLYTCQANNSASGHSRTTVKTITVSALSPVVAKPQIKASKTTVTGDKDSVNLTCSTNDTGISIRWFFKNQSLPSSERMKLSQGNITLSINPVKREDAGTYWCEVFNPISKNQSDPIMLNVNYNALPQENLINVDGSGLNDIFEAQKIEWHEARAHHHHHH
Description: as §3

B1: anti-CEA antibody B9 (IgG) (antibody, V domains shown)
VH: VQLVESGGGLVQPGRSLRLSCAASGFTVSSYWMHWVRQAPGKGLEWVGFIRNKANGGTTEYAASVKGRFTISRDDSKNTLYLQMNSLRAEDTAVYYCARDRGLRFYFDYWGQGTTVTVSS
VL: QAVLTQPASLSASPGASASLTCTLRRGINVGAYSIYWYQQKPGSPPQYLLRYKSDSDKQQGSGVSSRFSASKDASANAGILLISGLQSEDEADYYCMIWHSGASAVFGGGTKLTVL
notes: IgG
EC50 (read off the curve) [1]: ~2 nM | EC50 (read off the curve) [2]: ~2 nM

B2: NKG2D×CEA bispecific antibody, anti-NKG2D 395 (C50S) / anti-CEA B9, M format (bispecific antibody, V domains shown)
VH 1: QEQLEQSGGGLVTPGGSLKLCCTASGFDFNTFWMTWVRQAPGKGLEWIGSIHGGSGSRDYASWVNGRFTLSRDIDQSTACLQVNSLTAADTAMYYCARPGYRSWSKTFDLWGQGTMVTVSS
VL 1: DIQMTQSPSSLSASVGDRVTITCRASQDISGALNWYQQKPGKAPNLLIYAASSLQSGVPSRFSGSGSGTDYTLTISSLQPEDFATYYCQQANSFPLTFGGGTKVEIK
VH 2: B1 VH
VL 2: B1 VL
notes: also called monovalent format M
EC50 (read off the curve) [3]: ~5 nM | EC50 (read off the curve) [4]: ~5 nM | EC50 (read off the curve) [5]: ~4 nM | EC50 (read off the curve) [2]: ~10 nM

B3: bispecific NKG2D×CEA antibody in M format, ADI27743 / huA5B7 (bispecific antibody, human IgG1, kappa, L234A L235A)
heavy 1: not shown
light 1: QVQLQQWGAGLLKPSETLSLTCAVYGGSFSGYYWSWIRQPPGKGLEWIGEIDHSGSTNYNPSLKSRVTISVDTSKNQFSLKLSSVTAADTAVYYCARARGPWSFDPWGQGTLVTVSSASVAAPSVFIFPPSDEQLKSGTASVVCLLNNFYPREAKVQWKVDNALQSGNSQESVTEQDSKDSTYSLSSTLTLSKADYEKHKVYACEVTHQGLSSPVTKSFNRGEC
heavy 2: not shown
light 2: EIVLTQSPATLSLSPGERATLSCRASSSVTYIHWYQQKPGQAPRSWIYATSNLASGIPARFSGSGSGTDFTLTISSLEPEDFAVYYCQHWSSKPPTFGQGTKLEIKRTVAAPSVFIFPPSDRKLKSGTASVVCLLNNFYPREAKVQWKVDNALQSGNSQESVTEQDSKDSTYSLSSTLTLSKADYEKHKVYACEVTHQGLSSPVTKSFNRGEC
notes: also called ADI27743 bispecific
binding result [6]: binds

B4: NKG2D×CEA bispecific antibody in M format, P1AE4980 / huA5B7 (bispecific antibody, human IgG1, kappa, L234A L235A)
heavy 1: not shown
heavy 2: EVQLLESGGGLVQPGGSLRLSCAASGFTFTDYYMNWVRQAPGKGLEWLGFIGNKANAYTTEYSASVKGRFTISRDKSKNTLYLQMNSLRAEDTATYYCTRDRGLRFYFDYWGQGTTVTVSSASTKGPSVFPLAPSSKSTSGGTAALGCLVEDYFPEPVTVSWNSGALTSGVHTFPAVLQSSGLYSLSSVVTVPSSSLGTQTYICNVNHKPSNTKVDEKVEPKSCDKTHTCPPCPAPEAAGGPSVFLFPPKPKDTLMISRTPEVTCVVVDVSHEDPEVKFNWYVDGVEVHNAKTKPREEQYNSTYRVVSVLTVLHQDWLNGKEYKCKVSNKALGAPIEKTISKAKGQPREPQVCTLPPSRDELTKNQVSLSCAVKGFYPSDIAVEWESNGQPENNYKTTPPVLDSDGSFFLVSKLTVDKSRWQQGNVFSCSVMHEALHNHYTQKSLSLSP
light 1: QEQLVQSGAEVKKPGESLKISCKGSGFDFNTFWMTWVRQMPGKGLEWMGSIHGGSGSRDYSPSFQGQVTISADIDQSTAYLQWSSLKASDTAMYYCARPGYRSWSKTFDLWGQGTTVTVSSASVAAPSVFIFPPSDEQLKSGTASVVCLLNNFYPREAKVQWKVDNALQSGNSQESVTEQDSKDSTYSLSSTLTLSKADYEKHKVYACEVTHQGLSSPVTKSFNRGEC
light 2: B3 light 2
notes: also called NKG2D×CEA bispecific antibody (humanized anti-NKG2D antibody variant P1AE4980, M format)
EC50 (read off the curve) [6]: ~3 nM | EC50 [7]: 7.38 nM | Kd (his avi huNKG2D ECD): 12.6 nM | Kd (hu N(A2B2)A-avi-His): 3.45 nM
